Test results published in patent US20190248900A1 (Y BIOLOGICS, published 2019).

Columns and labels:
Test in all cases: ELISA
[1] = target: T1, BTN2A1 (Homo sapiens (Human), UniProt Q7KYR7 29-248)
T1 sequence: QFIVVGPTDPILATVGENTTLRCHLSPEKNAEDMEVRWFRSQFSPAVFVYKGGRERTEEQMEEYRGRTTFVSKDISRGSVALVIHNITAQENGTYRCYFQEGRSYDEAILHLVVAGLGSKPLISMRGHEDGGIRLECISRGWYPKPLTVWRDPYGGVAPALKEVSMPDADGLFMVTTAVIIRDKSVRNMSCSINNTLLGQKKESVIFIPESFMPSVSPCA

[2] = target: T2, LRTM1 (Homo sapiens (Human), UniProt Q9HBL6 28-288)
T2 sequence: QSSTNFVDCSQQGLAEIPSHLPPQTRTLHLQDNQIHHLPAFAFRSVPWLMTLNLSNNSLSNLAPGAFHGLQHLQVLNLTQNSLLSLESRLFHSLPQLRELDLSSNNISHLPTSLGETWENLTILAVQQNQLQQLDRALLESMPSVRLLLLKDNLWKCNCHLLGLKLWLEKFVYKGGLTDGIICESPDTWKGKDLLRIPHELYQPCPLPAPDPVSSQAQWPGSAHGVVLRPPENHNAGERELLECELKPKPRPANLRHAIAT

[3] = target: T3, GREM1 (Homo sapiens (Human), UniProt O60565 25-184)
T3 sequence: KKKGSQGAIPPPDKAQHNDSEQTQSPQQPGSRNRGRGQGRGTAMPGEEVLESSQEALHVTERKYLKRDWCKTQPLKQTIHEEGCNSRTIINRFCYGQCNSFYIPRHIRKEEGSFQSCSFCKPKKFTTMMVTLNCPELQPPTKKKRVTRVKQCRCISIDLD

[4] = target: T4, OGN (Homo sapiens (Human), UniProt P20774 21-298)
T4 sequence: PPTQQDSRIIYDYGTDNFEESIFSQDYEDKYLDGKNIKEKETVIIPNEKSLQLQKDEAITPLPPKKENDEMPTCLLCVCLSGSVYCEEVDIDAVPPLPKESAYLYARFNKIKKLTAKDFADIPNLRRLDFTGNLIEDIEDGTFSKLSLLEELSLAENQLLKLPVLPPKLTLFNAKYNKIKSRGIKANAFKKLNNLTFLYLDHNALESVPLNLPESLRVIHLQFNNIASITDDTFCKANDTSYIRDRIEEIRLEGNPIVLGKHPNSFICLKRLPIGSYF

[5] = target: T5, LRRN4 (Homo sapiens (Human), UniProt Q8WUT4 19-679)
T5 sequence: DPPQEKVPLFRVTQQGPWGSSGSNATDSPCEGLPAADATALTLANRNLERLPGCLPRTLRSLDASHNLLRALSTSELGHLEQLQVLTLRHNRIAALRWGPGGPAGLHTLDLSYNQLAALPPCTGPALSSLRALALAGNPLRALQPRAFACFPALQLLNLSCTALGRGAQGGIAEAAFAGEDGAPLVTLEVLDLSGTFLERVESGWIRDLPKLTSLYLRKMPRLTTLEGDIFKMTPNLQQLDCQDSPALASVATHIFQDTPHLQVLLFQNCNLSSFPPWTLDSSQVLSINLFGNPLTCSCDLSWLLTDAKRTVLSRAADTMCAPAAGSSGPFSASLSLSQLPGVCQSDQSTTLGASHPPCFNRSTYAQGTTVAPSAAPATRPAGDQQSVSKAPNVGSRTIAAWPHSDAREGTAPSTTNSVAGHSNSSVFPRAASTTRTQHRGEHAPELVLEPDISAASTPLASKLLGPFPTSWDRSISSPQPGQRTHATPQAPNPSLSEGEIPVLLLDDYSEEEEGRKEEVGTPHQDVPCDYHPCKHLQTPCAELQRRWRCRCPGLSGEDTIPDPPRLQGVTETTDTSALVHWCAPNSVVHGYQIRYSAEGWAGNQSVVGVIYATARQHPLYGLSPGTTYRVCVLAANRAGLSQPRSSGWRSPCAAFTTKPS

[6] = target: T6, TMEFF2 (Homo sapiens (Human), UniProt Q9UIK5 41-320)
T6 sequence: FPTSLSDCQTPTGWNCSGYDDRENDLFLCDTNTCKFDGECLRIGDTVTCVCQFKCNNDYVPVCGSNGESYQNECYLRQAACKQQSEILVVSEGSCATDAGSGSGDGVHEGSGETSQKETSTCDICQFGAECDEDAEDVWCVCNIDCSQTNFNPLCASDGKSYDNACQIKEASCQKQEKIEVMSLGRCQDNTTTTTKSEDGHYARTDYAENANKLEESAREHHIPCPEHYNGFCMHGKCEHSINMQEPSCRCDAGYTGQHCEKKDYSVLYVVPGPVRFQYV

[7] = target: T7, SPOCK2 (Homo sapiens (Human), UniProt Q92563 23-424)
T7 sequence: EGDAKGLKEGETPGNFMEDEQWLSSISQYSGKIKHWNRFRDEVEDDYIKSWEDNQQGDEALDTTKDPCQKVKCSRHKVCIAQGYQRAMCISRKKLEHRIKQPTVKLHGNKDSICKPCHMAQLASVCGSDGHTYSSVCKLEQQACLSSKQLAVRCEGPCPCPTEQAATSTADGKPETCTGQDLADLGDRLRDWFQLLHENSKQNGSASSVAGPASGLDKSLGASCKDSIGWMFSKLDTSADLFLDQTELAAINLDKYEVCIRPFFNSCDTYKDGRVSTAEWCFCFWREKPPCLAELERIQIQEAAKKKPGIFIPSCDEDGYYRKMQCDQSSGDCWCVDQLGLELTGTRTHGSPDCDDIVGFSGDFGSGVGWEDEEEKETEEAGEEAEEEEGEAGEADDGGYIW

Measured: binding result

B1: PD1-41C9 (antibody, V domains shown)
VH: QMQLVESGGGVVQPGRSLRLSCAASGFTFSSYAMHWVRQAPGKGLEWVAVISYDGSNKYYADSVKGRFTISRDNSKNTLYLQMNRLRSEDTAVYYCTTTTFDSWGQGTLITVSS
VL: DIVMTQTPLSLPVTPGEAASISCRSSQSLLDSEDGNTYLDWYLQKPGQSPQLLIYTLSHRASGVPDRFSGSGSGTDFTLKISRVAAEDVGLYYCLQRMGFPYTFGQGTKLDIK
notes: scFv-phage in the screening ELISA; whole IgG in the other assays
no binding (tested: 1 ug/ml): all assays above

B2: PD1-49A2 (antibody, V domains shown)
VH: QVQLVESGGGVVQPGRSLRLSCAASGFTFSSYAMHWVRQAPGKGLEWVAVISYDGSNKYYADSVKGRFTISRDNPKNTLYLQMNSLRAEDTAVYYCTTTTFDSWGRGTLVTVSS
VL: DIVMTQSPLSLPVTPGEPASISCRSSQSLFDSDDGNTYLDWYLQKPGQSPQLLIYTLSHRASGVPDRFSGSGSGTDFTLKISRVEAEDVGIYYCLQRMGFPYTFGQGTKVEIK
notes: scFv-phage in the screening ELISA; whole IgG in the other assays; also called Parent 49A2
no binding (tested: 1 ug/ml): all assays above

B3: PD1-45D6 (antibody, V domains shown)
VH: QVQLVESGGGVVQPGRSLRLSCAASGFTFSSYAMHWVRQVPGKGLEWVAVISYDGNDKYYADSVKGRFTISRDNSKNTLYLQMNSLRAEDTAVYYCVPTTFEYWGQGSQVTVSS
VL: DIVMTQTPLSLPVTPGEAASISCRSSQSLLDSDDGKTYLDWYLQKPGQSPQLLIYTLSYRASGVPDRFSGSGSGTEFNLRISRVEAEDVGIYYCMQRVEFPFTFGQGTKLDIK
notes: as for B1
no binding (tested: 1 ug/ml): all assays above
